Test results: patent US20140271701A1

Biological target: serum antibodies (IgG) of Sardinian T1D patients, Example 1 (n=34; Ab+ sera) (human)
Experiment: competition ELISA on MAP3865c125-133-coated plates, sera pre-adsorbed with saturating peptide

B1: ZnT8178-186 peptide (…) (peptide)
peptide: MIIVSSCAV
Binder B1 has a percent inhibition of 57 to 89%.
